Laboratory results taken from US20260049151A1 (SHENGHE CHINA BIOPHARMACEUTICAL, published 2026).
Read-outs that look alike come from different tables or passages of the source. Each block holds one binder with its values, some of them ahead of it.

Tests used:
Human TNFR2 mFc = biological target: T1, Human TNFR2 mFc (human, UniProt P20333 23-257); experiment: bridging ELISA: Human TNFR2 mFc coated (0.3 ug/mL), antibody titrated, then Human 4-1BB His (0.3 ug/mL), HRP anti-His detection (Example 5)
T1 construct: Bought protein; not shown: mFc
T1 sequence (looked up): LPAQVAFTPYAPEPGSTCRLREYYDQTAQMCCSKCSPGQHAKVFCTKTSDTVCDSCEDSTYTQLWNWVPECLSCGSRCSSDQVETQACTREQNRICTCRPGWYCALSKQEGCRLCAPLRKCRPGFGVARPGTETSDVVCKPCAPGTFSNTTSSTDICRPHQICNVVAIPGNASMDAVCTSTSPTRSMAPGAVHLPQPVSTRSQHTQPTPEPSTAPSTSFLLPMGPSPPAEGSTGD
Protocol: (§1) Human TNFR2 mFc (manufacturer: Kaixia, CAT: TN-HM3R2, LOT: 031202) was diluted to 0.3 μg/mL with a coating solution (1×PBS, pH7.4) and coated into a 96-well ELISA plate at 100 μL/well at 4° C. overnight. The coating solution was poured off. Each well was washed with 1×PBST at 300 μL, washed 4 times with a plate washer, and patted dry on a flat paper. It was blocked with 3% skim milk powder at 300 μL/well, and incubated at 37° C. for 1 h. The blocking solution was poured off, washed 4 times with a plate washer, and patted dry on a flat paper. […] Starting at 50 nM, which was used as the initial concentration for 3-fold dilution, a total of 10 gradients were diluted, and a blank well was set up and only the diluent was added. It was incubated at 37° C. for 1 h at 100 µL/well. The liquid in the well was discarded, washed 4 times with a plate washer, and patted dry on a flat paper. Human 4-1BB His (manufacturer: Acro, CAT: 41B-H5258, LOT: 198-2146F1-W6) was diluted to 0.3 μg/mL, 100 μL was added to each well, and incubated at room temperature for 1 h. The plate was washed 3 times with PBST, and then the HRP-labeled his antibody was diluted with sample diluent at 1:5000, 100 μ L was added to each well, and incubated at room temperature for 1 h. It was washed 6 times with a plate washer, and patted dry on a flat paper. TMB color developing solution was added at 100 μL/well, and wrapped with aluminum foil. Color development was performed at 37° C. in the dark for 8 min. Termination solution 1M HCl was added to terminate the color development reaction at 100 μL/well. Readings were taken at 450 nm on an ELISA reader.

Human 4-1BB His [1] = biological target: T2, Human 4-1BB His (human, UniProt Q07011 24-186); experiment: as above
T2 construct: Bought protein; lots 198-2146F1-W6 and 2407c-214FF1-YC; also called human 4-1BB protein; 4-1BB protein; not shown: His tag
Protocol: as §1

Human-TNFR2-His [2] = biological target: T3, Human-TNFR2-His (human, UniProt P20333 23-257); experiment: ELISA: Human-TNFR2-His coated (0.1 ug/mL), antibody titrated, goat anti-human IgG Fc detection (Example 2)
T3 construct: Bought protein; also called human TNFR2 protein; TNFR2 protein; not shown: His tag
T3 sequence (looked up): T1 sequence (looked up)
Protocol: (§2) Human-TNFR2-His (manufacturer: SINO, CAT: 10417-H08H, LOT: LC15NO0412) was diluted to 0.1 μg/mL with a coating solution (1×PBS, pH7.4), and coated in 96-well ELISA plate at 100 µL/well overnight at 4° C. The coating solution was poured off. Each well was washed with 1×PBST at 300 μL, washed 4 times with a plate washer, and patted dry on a flat paper. It was blocked with 3% skim milk powder at 300 μL/well, and incubated at 37° C. for 1 h. The blocking solution was poured off, washed 4 times with a plate washer, and patted dry on a flat paper. Negative control and positive control were set up. […] The positive control and antibody were diluted to 10 μg/mL with 3% skim milk powder as the starting concentration, and then diluted by 3-fold gradient (11 gradients in total), and a blank well was set up and only the diluent was added. It was incubated at 37° C. for 1 h at 100 μL/well. The liquid in the well was discarded, washed 4 times with a plate washer, and patted dry on a flat paper. Goat anti-human IgG Fc was diluted with 3% skim milk powder at 1:10000, and incubated at 37° C. for 1 h at 100 μL/well. It was washed 6 times with a plate washer, and patted dry on a flat paper. TMB color developing solution was added at 100 μL/well, and wrapped with aluminum foil. Color development was performed at 37° C. in the dark for 8 min. Termination solution 1M HCl was added to terminate the color development reaction at 100 μL/well. Readings were taken at 450 nm on an ELISA reader.

Human 4-1BB Fc = biological target: T4, Human 4-1BB Fc (human, UniProt Q07011 24-186); experiment: bridging ELISA: Human 4-1BB Fc coated (0.3 ug/mL), antibody titrated, then Human-TNFR2-His (0.3 ug/mL), HRP anti-His detection (Example 4)
T4 construct: same catalogue and lot number as Human 4-1BB His; not shown: Fc
Protocol: Human 4-1BB Fc (manufacturer: Acro, CAT: 41B-H5258, LOT: 198-2146F1-W6) was diluted to 0.3 μg/mL with a coating solution (1×PBS, pH7.4) and coated into a 96-well ELISA plate at 100 µL/well at 4° C. overnight. The coating solution was poured off. Each well was washed with 1×PBST at 300 μL, washed 4 times with a plate washer, and patted dry on a flat sheet. It was blocked with 3% skim milk powder at 300 μL/well, and incubated at 37° C. for 1 h. The blocking solution was poured off, washed 4 times with a plate washer, and patted dry on a flat sheet. […] Starting at 50 nM, which was used as the initial concentration for 3-fold dilution, a total of 10 gradients were diluted, and a blank well was set up and only the diluent was added. It was incubated at 37° C. for 1 h at 100 μL/well. The liquid in the well was discarded, washed 4 times with a plate washer, and patted dry on a flat paper. Human-TNFR2-His (manufacturer: Sino, CAT: 10417-H08H, LOT: LC15NO0412) was diluted to 0.3 μg/mL, 100 μL was added to each well, and incubated at room temperature for 1 h. The plate was washed 3 times with PBST, and then the HRP-labeled his antibody was diluted with sample diluent at 1:5000, 100 μ L was added to each well, and incubated at room temperature for 1 h. It was washed 6 times with a plate washer, and patted dry on a flat paper. TMB color developing solution was added at 100 μL/well, and wrapped with aluminum foil. Color development was performed at 37° C. in the dark for 8 min. Termination solution 1M HCl was added to terminate the color development reaction at 100 μL/well. Readings were taken at 450 nm on an ELISA reader.

Human-TNFR2-His [3] = biological target: T3, Human-TNFR2-His; experiment: ELISA: Human-TNFR2-His coated (0.1 ug/mL), antibody titrated, goat anti-human IgG Fc detection (Example 2); remark: listed apart in the source
Protocol: as §2

Human 4-1BB His [4] = biological target: T2, Human 4-1BB His; experiment: ELISA: Human 4-1BB His coated (0.2 ug/mL), antibody titrated, goat anti-human IgG Fc detection (Example 3)
Protocol: Human 4-1BB His (manufacturer: Acro, CAT: 41B-H5258, LOT: 198-2146F1-W6) was diluted to 0.2 μg/mL with a coating solution (1×PBS, pH7.4), and coated in 96-well ELISA plate at 100 μL/well overnight at 4° C. The coating solution was poured off. Each well was washed with 1×PBST at 300 μL, washed 4 times with a plate washer, and patted dry on a flat paper. It was blocked with 3% skim milk powder at 300 μL/well, and incubated at 37° C. for 1 h. The blocking solution was poured off, washed 4 times with a plate washer, and patted dry on a flat paper. Negative control and positive control were set up. […] The variable region of the antibody sequence of the positive control consists of SEQ ID NO: 15 and SEQ ID NO: 19, with the addition of the constant region of human IgG1 (SEQ ID NO: 46 and SEQ ID NO: 47). The positive control and antibody were diluted to 10 μg/mL with 3% skim milk powder as the starting concentration, and then diluted by 3-fold gradient (11 gradients in total), and a blank well was set up and only the diluent was added. It was incubated at 37° C. for 1 h at 100 μL/well. The liquid in the well was discarded, washed 4 times with a plate washer, and patted dry on a flat paper. Goat anti-human IgG Fc was diluted with 3% skim milk powder at 1:20000, and incubated at 37° C. for 1 h at 100 μL/well. It was washed 6 times with a plate washer, and patted dry on a flat paper. TMB color developing solution was added at 100 μL/well, and wrapped with aluminum foil. Color development was performed at 37° C. in the dark for 8 min. Termination solution 1M HCl was added to terminate the color development reaction at 100 μL/well. Readings were taken at 450 nm on an ELISA reader.

T2 sequence (Q07011 24-186 limits assumed): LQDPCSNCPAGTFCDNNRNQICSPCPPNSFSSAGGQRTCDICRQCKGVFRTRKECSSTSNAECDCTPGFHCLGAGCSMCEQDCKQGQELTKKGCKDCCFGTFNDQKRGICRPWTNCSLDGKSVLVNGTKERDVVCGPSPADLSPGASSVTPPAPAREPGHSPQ
T4 sequence (Q07011 24-186 limits assumed): as above

- binding result (Human TNFR2 mFc): binds
- binding result (Human 4-1BB His [1]): binds
- binding result (Human-TNFR2-His [2]): binds
B1: Antibody B (bispecific antibody, human IgG1, kappa)
light: DIQMTQSPSSLSASLGDRVTISCSASQGISNYLNWYQQKPDGTVKLLIYYTSTLHSGVPSRFSGSGSGTDYTLTISSLQPEDIATYYCQQYSKLPWTFGGGTKLEIKRTVAAPSVFIFPPSDEQLKSGTASVVCLLNNFYPREAKVQWKVDNALQSGNSQESVTEQDSKDSTYSLSSTLTLSKADYEKHKVYACEVTHQGLSSPVTKSFNRGECGGGGSGGGGSEVQLVQSGAEVKKPGATVKISCKVSGYSITDYLLHWVQQAPGKCLEWMGWIDPEDAKTKYGQKFQSRVTITADTSTDTAYMELSSLRSEDTAVYYCAANSGTGTMDAWGQGTLVTVSSGGGGSGGGGSGGGGSDIVMTQSPATLSVSPGERATLSCKASQNVGSNVDWYQQKPGQSPRVLIYKASIRYTGIPARFSGSGSGTEFTLTISILQSEDFAVYFCMQSKSYPITFGCGTKLEIK
heavy: not shown
notes: IgG1 subtype; full-length 4-1BB antibody with TNFR2 scFv at the C-terminus of the light chains

- EC50 (read off the curve) (Human 4-1BB Fc): ~400 pM
- EC50 (read off the curve) (Human-TNFR2-His [3]): ~80 pM
- EC50 (read off the curve) (Human TNFR2 mFc): ~200 pM
- EC50 (read off the curve) (Human 4-1BB His [4]): ~300 pM
B2: Antibody F (bispecific antibody, human IgG1, kappa)
light: DIVMTQSPATLSVSPGERATLSCKASQNVGSNVDWYQQKPGQSPRVLIYKASIRYTGIPARFSGSGSGTEFTLTISILQSEDFAVYFCMQSKSYPITFGQGTKLEIKRTVAAPSVFIFPPSDEQLKSGTASVVCLLNNFYPREAKVQWKVDNALQSGNSQESVTEQDSKDSTYSLSSTLTLSKADYEKHKVYACEVTHQGLSSPVTKSFNRGECGGGGSGGGGSQVQLQESGPGLVKPSETLSLTCTVSGSSLTSYGVHWVRQPPGKCLEGLGVIWPGGSTNYNSALMSRVTISKDNSKSQVSLKMSSLTAADTAVYYCARVTGTWYFDVWGQGTTVTVSSGGGGSGGGGSGGGGSDIQMTQSPSSLSASLGDRVTISCSASQGISNYLNWYQQKPDGTVKLLIYYTSTLHSGVPSRFSGSGSGTDYTLTISSLQPEDIATYYCQQYSKLPWTFGCGTKLEIK
heavy: not shown
notes: IgG1 subtype; full-length TNFR2 antibody with 4-1BB scFv at the C-terminus of the light chains

- binding result (Human-TNFR2-His [3]): binds
- binding result (Human TNFR2 mFc): binds
- binding result (Human 4-1BB His [1]): binds
B3: Antibody D (bispecific antibody, human IgG1, kappa)
light: EVQLVQSGAEVKKPGATVKISCKVSGYSITDYLLHWVQQAPGKCLEWMGWIDPEDAKTKYGQKFQSRVTITADTSTDTAYMELSSLRSEDTAVYYCAANSGTGTMDAWGQGTLVTVSSGGGGSGGGGSGGGGSDIVMTQSPATLSVSPGERATLSCKASQNVGSNVDWYQQKPGQSPRVLIYKASIRYTGIPARFSGSGSGTEFTLTISILQSEDFAVYFCMQSKSYPITFGCGTKLEIKGGGGSGGGGSGGGGSDIQMTQSPSSLSASLGDRVTISCSASQGISNYLNWYQQKPDGTVKLLIYYTSTLHSGVPSRFSGSGSGTDYTLTISSLQPEDIATYYCQQYSKLPWTFGGGTKLEIKRTVAAPSVFIFPPSDEQLKSGTASVVCLLNNFYPREAKVQWKVDNALQSGNSQESVTEQDSKDSTYSLSSTLTLSKADYEKHKVYACEVTHQGLSSPVTKSFNRGEC
heavy: not shown
notes: IgG1 subtype; full-length 4-1BB antibody with TNFR2 scFv at the N-terminus of the light chains
